Consider one sequence from patent US20260027179A1, “ANTI-SYNUCLEINOPATHY PEPTIDE AND METHODS TO TREAT NEURODEGENERATIVE DISEASES” (University of British Columbia, priority 2021, published 2026).

One assay concerns the target T1, α-synuclein (Mus musculus, UniProt O55042).
T1 construct: tissue Charles River; host or cells: ventral midbrain and striatum of C57BL/6 mice
In words: MPTP mouse model, α-synuclein immunoblotting of brain tissue. The assay is classed as in vivo. The following applies: MPTP mice, 6 μmol/kg i.p. twice a day for 12 days, immunoblot. The protocol:
C57BL/6 mice were i.p. injected with 30 mg/kg parkinsonian toxin MPTP (or saline as control), once per day for 5 consecutive days, to induce dopaminergic neuron damage. The effects of MPTP administration on mouse rotarod performance and damage to dopaminergic neurons were then analyzed 1 week after the last injection of MPTP. To determine the effect of α-synuclein knockdown in protecting dopaminergic neurons against MPTP, the Tat-βsyn-degron peptide or its control Tat-βsyn (6 μmol/kg; i.p.) was used in some animals twice a day for 12 days, beginning the first day of MPTP injection. […] The striatum is a region that receives dopaminergic neuronal projections from the substantia nigra and is also deeply affected in PD. […]
Brain tissues or cultured cells were lysed on ice in the lysis buffer and then the solution was centrifuged at 14,000 rpm for 10 min at 4° C. Next, the supernatant was collected and protein concentrations were determined using a BCA protein assay kit (Thermo Scientific, 23227). […] The band density of each protein was quantified by the Bio-Rad Quantity One software and the relative optical density was analyzed relative to the loading control β-actin on the same membrane.
In general terms: In western blotting, separated proteins are transferred to a membrane and probed.

For another assay, the system named is C57BL/6 mice. The experiment in a line: MPTP mouse model, rotarod test. The assay is classed as in vivo. To be noted: peptide 6 μmol/kg i.p. twice a day for 12 days, vs MPTP group. The protocol: C57BL/6 mice (20-25 g) received intraperitoneal (i.p.) injection of 30 mg/kg parkinsonian toxin MPTP hydrochloride once a day for 5 days to induce dopaminergic neuron death in the substantia nigra, while the control mice received equal volumes of saline injection. 6 μmol/kg Tat-βsyn-degron peptide or control Tat-βsyn peptide was i.p. injected into the MPTP-treated mice every 12 hrs from the first day of MPTP injection until 7 days after the last injection of MPTP. All groups of mice then underwent a rotarod test before they were sacrificed.
The rotarod test was performed as previously described (Heldermon, C. D. et al., PloS one 2, e772, doi:10.1371/journal.pone.0000772 (2007)), with modifications. Briefly, 6 days after the last MPTP injection, all mice received 4 rounds of training on the rotarod (Stoelting Co.). In the first two rounds of training, the rotarod was maintained at constant speed of 20 rpm for 3 min. In the second two rounds of training, the rotarod reversed rotation direction every 3 turns at the constant speed of 20 rpm for 3 min. […] Mice were tested 10 times at 20 min intervals, and the time that they remained on the rotarod during each test was recorded. […] The motor performance of the mouse was expressed as the latency to fall off the rotarod.

“YGRKKRRQRRRRTKSGVYLVGRRRG (The sequence is synthesized (YGRKKRRQRRRRTKSGVYLVGRRRG)) [Tat-βsyn-degron]”: in the assay with α-synuclein, the α-synuclein in striatum entry was “induced significant α-synuclein degradation” and the “α-synuclein in substantia nigra-containing ventral midbrain” value was “induced significant α-synuclein degradation”. Further, the “MPTP-induced motor deficits (latency to fall off the rotarod)” value in the assay on C57BL/6 mice was “significantly reduced”.
